Measurements taken from publication PMC2996635 (Journal of immunology (Baltimore, Md. : 1950), 2010).

How the values were obtained:
Experiment in all cases: SEC
[1] = target: hrCD5-His (human CD5 domain 1 and rat CD5 domains 2 and 3, His tag) (human | rat)
[2] = target: mCD5-His (extracellular region of mouse CD5 fused to a His tag) (mouse)
[3] = target: the molecule itself

hrCD5-His (human CD5 domain 1 and rat CD5 domains 2 and 3, His tag)
stoichiometry N [1]: 2

mCD5-His (extracellular region of mouse CD5 fused to a His tag) (domain or fragment)
stoichiometry N [2]: 2

B1: hCD5-His (extracellular region of human CD5 fused to a His tag) (domain or fragment, UniProt P06127 25-372, looked up)
chain: RLSWYDPDFQARLTRSNSKCQGQLEVYLKDGWHMVCSQSWGRSSKQWEDPSQASKVCQRLNCGVPLSLGPFLVTYTPQSSIICYGQLGSFSNCSHSRNDMCHSLGLTCLEPQKTTPPTTRPPPTTTPEPTAPPRLQLVAQSGGQHCAGVVEFYSGSLGGTISYEAQDKTQDLENFLCNNLQCGSFLKHLPETEAGRAQDPGEPREHQPLPIQWKIQNSSCTSLEHCFRKIKPQKSGRVLALLCSGFQPKVQSRLVGGSSICEGTVEVRQGAQWAALCDSSSARSSLRWEEVCREQQCGSVNSYRVLDAGDPTSRGLFCPHQKLSQCHELWERNSYCKKVFVTCQDPNP
stoichiometry N [3]: 2
